Test results reported in patent US20230002480A1.

Experiments:
Assay in all cases: cell-based or functional assay
[1] = biological target: HIV-1 Env of pseudovirus A07412M1.vrc12 (HIV-1)
[2] = biological target: HIV-1 Env of pseudovirus 6545.v4.c1 (HIV-1)
[3] = biological target: HIV-1 Env of pseudovirus 6811.v7.c18 (HIV-1)
[4] = biological target: HIV-1 Env of pseudovirus T278-50 (HIV-1)
[5] = biological target: HIV-1 Env of pseudovirus R3265.c06 (HIV-1)
[6] = biological target: HIV-1 Env of pseudovirus 3817.v2.c59 (HIV-1)
[7] = biological target: HIV-1 Env of pseudovirus CNE5 (HIV-1)
[8] = biological target: HIV-1 Env of pseudovirus R2184.c04 (HIV-1)
[9] = biological target: HIV-1 Env of pseudovirus T251-18 (HIV-1)
[10] = biological target: HIV-1 Env of pseudovirus 191084 B7-19 (HIV-1)
[11] = biological target: HIV-1 Env of pseudovirus 620345.c01 (HIV-1)
[12] = biological target: HIV-1 Env of pseudovirus BJOX010000.06.2 (HIV-1)
[13] = biological target: HIV-1 Env of pseudovirus X1193_c1 (HIV-1)
[14] = biological target: HIV-1 Env of pseudovirus X2088_c9 (HIV-1)
[15] = biological target: HIV-1 Env of pseudovirus 231965.c01 (HIV-1)
[16] = biological target: HIV-1 Env of pseudovirus X2131_C1_B5 (HIV-1)
[17] = biological target: HIV-1 Env of pseudovirus C2101.c01 (HIV-1)

N49P7.2 (antibody)
IC50 [1]: 0.768 µg/mL | IC80 [1]: 2.32 µg/mL | MPI [1]: 100 | IC50 [2]: > 50 µg/mL | IC80 [2]: > 50 µg/mL | MPI [2]: 4 | IC50 [3]: 0.541 µg/mL | IC80 [3]: 2.55 µg/mL | MPI [3]: 100 | IC50 [4]: > 50 µg/mL | IC80 [4]: > 50 µg/mL | MPI [4]: 33 | IC50 [5]: 0.153 µg/mL | IC80 [5]: 0.985 µg/mL | MPI [5]: 100 | IC50 [6]: 9.83 µg/mL | IC80 [6]: > 50 µg/mL | MPI [6]: 68 | IC50 [7]: 0.206 µg/mL | IC80 [7]: 0.893 µg/mL | MPI [7]: 100 | IC50 [8]: 0.02 µg/mL | IC80 [8]: 0.047 µg/mL | MPI [8]: 100 | IC50 [9]: 0.222 µg/mL | IC80 [9]: 0.741 µg/mL | MPI [9]: 100 | IC50 [10]: 0.102 µg/mL | IC80 [10]: 0.29 µg/mL | MPI [10]: 100 | IC50 [11]: > 50 µg/mL | IC80 [11]: > 50 µg/mL | MPI [11]: 0 | IC50 [12]: 0.267 µg/mL | IC80 [12]: 1.11 µg/mL | MPI [12]: 100 | IC50 [13]: 0.014 µg/mL | IC80 [13]: 0.101 µg/mL | MPI [13]: 100 | IC50 [14]: 0.377 µg/mL | IC80 [14]: 2.03 µg/mL | MPI [14]: 99 | IC50 [15]: 0.316 µg/mL | IC80 [15]: 1.06 µg/mL | MPI [15]: 100 | IC50 [16]: 0.161 µg/mL | IC80 [16]: 0.671 µg/mL | MPI [16]: 100 | IC50 [17]: 0.162 µg/mL | IC80 [17]: 0.727 µg/mL | MPI [17]: 100

N49P18.1 (antibody)
IC50 [1]: 41.3 µg/mL | IC80 [1]: > 50 µg/mL | MPI [1]: 54 | IC50 [2]: > 50 µg/mL | IC80 [2]: > 50 µg/mL | MPI [2]: 0 | IC50 [3]: 7.43 µg/mL | IC80 [3]: 31.9 µg/mL | MPI [3]: 94 | IC50 [4]: > 50 µg/mL | IC80 [4]: > 50 µg/mL | MPI [4]: 36 | IC50 [5]: 27.9 µg/mL | IC80 [5]: > 50 µg/mL | MPI [5]: 66 | IC50 [6]: > 50 µg/mL | IC80 [6]: > 50 µg/mL | MPI [6]: 34 | IC50 [7]: 19.5 µg/mL | IC80 [7]: > 50 µg/mL | MPI [7]: 72 | IC50 [8]: 3.38 µg/mL | IC80 [8]: 11.8 µg/mL | MPI [8]: 100 | IC50 [9]: 23 µg/mL | IC80 [9]: > 50 µg/mL | MPI [9]: 70 | IC50 [10]: 5.59 µg/mL | IC80 [10]: 16.9 µg/mL | MPI [10]: 98 | IC50 [11]: > 50 µg/mL | IC80 [11]: > 50 µg/mL | MPI [11]: 0 | IC50 [12]: > 50 µg/mL | IC80 [12]: > 50 µg/mL | MPI [12]: 39 | IC50 [13]: 3.12 µg/mL | IC80 [13]: 23.9 µg/mL | MPI [13]: 94 | IC50 [14]: 9.08 µg/mL | IC80 [14]: 34.9 µg/mL | MPI [14]: 88 | IC50 [15]: > 50 µg/mL | IC80 [15]: > 50 µg/mL | MPI [15]: 31 | IC50 [16]: 30.4 µg/mL | IC80 [16]: > 50 µg/mL | MPI [16]: 75 | IC50 [17]: 15.3 µg/mL | IC80 [17]: 41.9 µg/mL | MPI [17]: 85
